According to patent publication US20240083999A1 (TRUSTEES OF TUFTS COLLEGE, published 2024):
Each block holds one binder with its values, some of them ahead of it.

How the values were obtained:
[1] = target: T1, human interleukin 6 (hIL-6) (human, UniProt P05231 30-212); assay: cell-based or functional assay
[2] = target: T1, human interleukin 6 (hIL-6); assay: dilution ELISA, plate-coated hIL-6
Description: Based on sequence analysis, five clonally-independent families of the anti-hIL-6 VHHs, i.e., having sequence homology derived from independent B cell origins, were obtained. One family represented the majority of VHH family members that strongly bound to hIL-6 as determined by ELISA; therefore, multiple variants of this family were also sequenced. The anti-hIL-6 VHH coding DNA of selected VHHs was re-cloned into E. coli expression vectors and the anti-hIL-6 VHH proteins were expressed and purified using standard methods. The purified anti-hIL-6 VHHs were subjected to dilution ELISA analysis to assess their apparent affinities for binding to hIL-6. […] (See, e.g., Mukherjee, J., et al., 2012 PLoS ONE, 7, e299411). The EC₅₀ value of JYK-D12 for binding hTL-6 as determined by ELISA was about 0.4 nM.
Maxisorp ELISA plates (Nunc; Thermo Fisher USA) coated with recombinantly produced hIL-6 protein (0.5-5 μg/ml) overnight at 4° C. were used for immuno-binding assays (ELISA). Plates were washed 3 times with 1×PBS+0.1% Tween, followed by washing 3 times with 1×PBS. Washed plates were blocked (4-5% non-fat dry milk in 1×PBS+0.1% Tween) for 1 hour at room temperature (RT) with rocking. Serially diluted (1:5) hIL-6 VHH binding molecules targeting hIL-6, diluted in blocking solution, were incubated for 1 hour at RT with rocking and washed as above. […]

[3] = target: T2, mouse interleukin 6 (mIL-6) (mouse, UniProt P08505 25-211); assay: told from an in vivo STAT3 phosphorylation Western blot (FIG. 7), not a direct binding assay
T2 construct: the whole entry is named; also called mouse IL-6; mouse IL6
T2 sequence: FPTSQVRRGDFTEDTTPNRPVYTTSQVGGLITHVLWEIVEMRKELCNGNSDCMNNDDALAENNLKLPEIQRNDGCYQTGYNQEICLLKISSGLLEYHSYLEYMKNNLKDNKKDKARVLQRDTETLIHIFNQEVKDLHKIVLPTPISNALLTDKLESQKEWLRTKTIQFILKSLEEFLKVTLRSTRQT
Description: Experiments were conducted to determine whether the representative anti-hIL-6 VHH antibody cross-reacted with mouse IL-6 in vivo. In this experiment, one group of C57BL/6 mice was injected intraperitoneally with 1 μg of mouse IL-6 (mIL-6) in PBS; another group of C57BL/6 mice was injected with 1 μg of mouse IL-6 (mIL-6) plus 0.4 μg anti-hIL-6 VHH antibody. The animals were euthanized 30 minutes post-injection; their livers were isolated; and protein was extracted. Western blot analyses were carried out to assess the phosphorylation of STAT3 using P-STAT3 Y705 antibody (1:1,000 dilution) and STAT3 antibody (1:2,000 dilution), (Cell Signaling Technology (CST), Danvers, MA). The results of the Western blot analysis to assess the cross-reactivity of the anti-hIL-6 VHH antibody in mIL-6-induced hepatic STAT activation are shown in FIG. 7.

B1: hIL-6-binding VHH JYK-A9 (Trx/JYK-A9/E) (VHH, not shown: large carriers)
VHH: QVQLVESGGGLVQAGDSLTLSCAASGRPFSSFAMGWFRQAPGKEREFVAAITWSRGTTHYADSVKGRFTISGDNAKNTVFLQMNSLKPEDTAVYYCAAADGWKVVSTASPAYDYWGQGTQVTVSS
complete neutralization, 7TD1 cell proliferation (neutralization) assay [1]: 2 µg/mL

B2: hIL-6-binding VHH JYK-A1 (Trx/JYK-A1/E) (VHH, not shown: large carriers)
VHH: QLQLAETGGGLVQPGGSLRLSCAASGFTLDYYAVGWFRQAPGKEREGISCISSSDLKTYYADSVKGRFTISRDYAKSTVSLQMNSLKPEDTGVYYCAAGTWDLKFGYNISACVGSYEYDYWDQGTQVTVSS
complete neutralization, 7TD1 cell proliferation (neutralization) assay [1]: 0.0247 µg/mL

EC50 [2]: ~0.4 nM
B3: hIL-6-binding VHH JYK-D12 (Trx/JYK-D12/E) (VHH)
VHH: QLQLVESGGGLVQPGGSLGLSCAASGFTLAYYGIGWFRQAPGKEREGVACISSSDLSTYYADSVKGRFTISRDNAKDTVYLQMNSLKPEDTAVYYCAAGTWDLKFGYSRSNCVRSYEYDYWGQGTQVTVSS
notes: Expressed in E. coli as Trx/VHH/E fusion; also called JYK-D12 sh.ab1; expression vector JYR-3; not shown: Trx fusion partner of the construct Trx/JYK-D12/E
ED50, 7TD1 cell proliferation (neutralization) assay [1]: < 0.3 ng/mL | complete neutralization, 7TD1 cell proliferation (neutralization) assay [1]: 0.0009 µg/mL

B4: hIL-6-binding VHH JYK-H9 (Trx/JYK-H9/E) (VHH, not shown: large carriers)
VHH: QLQLVETGGGLVQPGGSLRLSCAASGFTLDYYAIGWFRQAPGKEREGVSCLSSSDRSTYYVDSVKGRFTISRDDDKNTAYLQMNSLKPEDTATYYCAAGTWDLKWGYNISACVGSYEYDYWGQGTQVTVSS
complete neutralization, 7TD1 cell proliferation (neutralization) assay [1]: 0.0027 µg/mL

effective dose against Tocilizumab, in vivo neutralization assay [1]: 1000 fold | binding result [3]: binds
B5: JYK-D12/JYK-D12 homodimer (VHH)
chain: QVQLVESGGGLVQPGGSLGLSCAASGFTLAYYGIGWFRQAPGKEREGVACISSSDLSTYYADSVKGRFTISRDNAKDTVYLQMNSLKPEDTAVYYCAAGTWDLKFGYSRSNCVRSYEYDYWGQGTQVTVSSGGGGSGGGGSGGGGSQVQLVESGGGLVQPGGSLGLSCAASGFTLAYYGIGWFRQAPGKEREGVACISSSDLSTYYADSVKGRFTISRDNAKDTVYLQMNSLKPEDTAVYYCAAGTWDLKFGYSRSNCVRSYEYDYWGQGTQVTVSS
notes: One polypeptide with two JYK-D12 units; also called VCR-108
